Experimental data from article PMC11602996, “Discovery, characterization, and structure of a cofactor-independent histidine racemase from the oral pathogen Fusobacterium nucleatum” (The Journal of Biological Chemistry, 2024).

B1: HisR (FN1732, predicted DapF) from F. nucleatum ATCC 25586 (Fusobacterium nucleatum subsp. nucleatum ATCC 25586) (protein)
chain: MDRKVQVLDFIKINPAGNITILIDNFDIYDKNIPKLSEEIMKETNLYAEQVGFIKDSHLQMMGGEFCGNASRAFASLLAFRDKDFSKQKNYNITCSGESKVLDVDVRNDGAKNKFLAKIKMPKFLSLEEINVDEYKLGLVRFSGINHFIFNIKENKETSFENIIDLVKKYLSNEEYSAFGIMFFDSDNLSMKPYVYVKEVGSGVYENSCASGTTALGYYLKKCKNLDRAKIVQPNGWLEYIIENDEMYIDGPVEIIAEGKIYIGK
notes: C-terminal hexahistidine tag, codon-optimized gene in pET-24b(+), expressed in E. coli BL21(DE3), Ni-NTA purified; homodimer
B2: HisR from F. nucleatum ATCC 23726 (Fusobacterium nucleatum subsp. nucleatum ATCC 23726) (protein)
chain: MDGKVQVLDFIKINPAGNITILIDNFDIYDKNIPKLSEEIMKETNLYAEQVGFIKEKHLQMMGGEFCGNASRSFASLLAFRDKDFSEQKNYSITCSGESEVLDVDVRTDGAKNKFLAKIKMPKFISLEEISIDEYKLGLVRFSGISHFIFNIKENKETSFENIIDLVKKYLSNEDYSAFGIMFFDKDNLSMKPYVYVKELESGIYENSCASGTTALGYYLKKYKNLDRAKVVQPNGWLEYIIENDEMYIDGPVEIVAEGKVYI

Experiments:
purified protein [1] = substrate: N[C@@H](Cc1c[nH]cn1)C(=O)O; test: purified protein; assay type: biochemical, Fusobacterium nucleatum; details: 20 mM NaH2PO4, 100 mM NaCl, pH 7.5, 25 °C
purified protein [2] = substrate: N[C@H](Cc1c[nH]cn1)C(=O)O; test: purified protein; assay type: biochemical, Fusobacterium nucleatum; details: 20 mM NaH2PO4, 100 mM NaCl, pH 7.5, 25 °C

| Protein | Km (purified protein [1]) [mM] | kcat (purified protein [1]) [s⁻¹] | kcat/Km (purified protein [1]) [M⁻¹ s⁻¹] | Km (purified protein [2]) [mM] | kcat (purified protein [2]) [s⁻¹] | kcat/Km (purified protein [2]) [M⁻¹ s⁻¹] |
| --- | --- | --- | --- | --- | --- | --- |
| B1 | 4 | 74 | 20000 | 24 | 250 | 10000 |
| B2 | 5 | 42 | 9000 | 18 | 64 | 4000 |
